# Laboratory results taken from US20240036027A1 (UNIVERSITY OF MASSACHUSETTS, published 2024).
# B1: OmpG^L3/L6-SA1.1 (designed binder)
# chain: MEERNDWHFNIGAMYEIENVEGYGEDMDGLAEPSVYFNAANGPWRIALAYYQEGPVDYSAGKRGTWFDRPELEVHYQFLENDDFSFGLTGGFRNYGYHYVDEPGLEICQNVCYYGGKDTANMQRWKIAPDWDVKLTDDLRFNGWLSMYKFANDLNTTGYADTRVETETGLQYTFNETVALRVNYYLERGFNMDDSRNNGEFSTQEIRAYLPLTLGNHSVTPYTRIGLDRWSNWDWQGLEICQNVCYYGDDIEREGHDFNRVGLFYGYDFQNGLSVSLEYAFEWQDHDEGDSDKFHYAGVGVNYSF
# notes: SA1.1 motif in both loops 3 and 6; also called avidity sensor; avidity nanopore sensor
# B2: OmpG^L6-SA1.1 (designed binder)
# chain: MEERNDWHFNIGAMYEIENVEGYGEDMDGLAEPSVYFNAANGPWRIALAYYQEGPVDYSAGKRGTWFDRPELEVHYQFLENDDFSFGLTGGFRNYGYHYVDEPGKDTANMQRWKIAPDWDVKLTDDLRFNGWLSMYKFANDLNTTGYADTRVETETGLQYTFNETVALRVNYYLERGFNMDDSRNNGEFSTQEIRAYLPLTLGNHSVTPYTRIGLDRWSNWDWQGLEICQNVCYYGDDIEREGHDFNRVGLFYGYDFQNGLSVSLEYAFEWQDHDEGDSDKFHYAGVGVNYSF
# notes: also called Loop 6 SA1.1
# B3: OmpG^L3-FLAG/L6-SA1.1 (designed binder)
# chain: MEERNDWHFNIGAMYEIENVEGYGEDMDGLAEPSVYFNAANGPWRIALAYYQEGPVDYSAGKRGTWFDRPELEVHYQFLENDDFSFGLTGGFRNYGYHYVDEPGDYKDDDDKGGKDTANMQRWKIAPDWDVKLTDDLRFNGWLSMYKFANDLNTTGYADTRVETETGLQYTFNETVALRVNYYLERGFNMDDSRNNGEFSTQEIRAYLPLTLGNHSVTPYTRIGLDRWSNWDWQGLEICQNVCYYGDDIEREGHDFNRVGLFYGYDFQNGLSVSLEYAFEWQDHDEGDSDKFHYAGVGVNYSF
# notes: Possible glycines beside SA1.1 (primers) not built in; also called multiplex sensor; SA1.1 multiplex sensor
# Tests used:
# [1] = target: T1, Streptavidin (unconjugated, EMD Millipore) (UniProt P22629 37-163); assay: single-channel current recording
# [2] = target: T1, Streptavidin (unconjugated, EMD …); assay: single-channel current recording, KOff of the lower Ires state taking transient returns to basal conductance as dissociation
# [3] = target: T1, Streptavidin (unconjugated, EMD …); assay: single-channel current recording, discrete binding events
# [4] = target: T1, Streptavidin (unconjugated, EMD …); assay: single-channel current recording, kOff=1/tauOff
# [5] = target: T1, Streptavidin (unconjugated, EMD …); assay: single-channel current recording, kOn=1/(C*tauOn)
# [6] = target: T1, Streptavidin (unconjugated, EMD …); assay: single-channel current recording, apparent Kd=kOff/kOn, N=3, n=903
# [7] = target: T1, Streptavidin (unconjugated, EMD …); assay: single-channel current recording, calculated from kOff and kOn
# [8] = target: T1, Streptavidin (unconjugated, EMD …); assay: single-channel current recording, streptavidin alone, concentration dependence
# [9] = target: T1, Streptavidin (unconjugated, EMD …); assay: single-channel current recording, streptavidin alone, N=12, n=2846
# T1 sequence (P22629 37-163 limits assumed): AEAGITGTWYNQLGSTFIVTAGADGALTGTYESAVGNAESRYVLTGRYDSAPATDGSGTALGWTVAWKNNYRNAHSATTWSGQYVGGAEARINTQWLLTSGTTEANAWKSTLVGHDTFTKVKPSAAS
binder,measurement,setting,value
B1,fold change of KOff against OmpG^L6-SA1.1,[1],~76 fold
same,fold change of KOn against OmpG^L6-SA1.1,[1],~4.7 fold
same,koff,[2],0.701 s⁻¹
same,koff,[3],0.0103 s⁻¹
same,kon,[3],326000 M⁻¹ s⁻¹
B2,koff,[4],0.783 s⁻¹
same,kon,[5],69100 M⁻¹ s⁻¹
same,Kd,[6],8.83 µM
B3,Kd,[7],7.54 µM
same,kon,[8],73200 M⁻¹ s⁻¹
same,koff,[9],0.552 s⁻¹
